# Source: the DeepSol protein solubility set
# Test: soluble on expression in E. coli; label from the status in PepcDB or PDB records
row,Sequence,soluble on expression in E. coli
1,MSNFEKKYILELNDALSHLNHNSTSFDLLKVLISWLSNDIVIDKFKILGYDFSKYIEMNPDDYPVEKSILNREEIIYLKNNIYRKISSGNFKFQYFVQYIRDILEYLFIEHIERVCPYCEWGEMQKLEEQNTHETVYLCTQCGCAFYNDNSQFLLKTPLTIPMKRDEFK,not soluble
2,MGSDKIHHHHHHCSTEVTEYRQQQPALDIFHYFQGRTEAWGMVQDRSGKQLRRFHVEIDGDVVGDTLTLHERFVYDDGEKQQRIWRIRRTGDNRYQGTAGDIEGVASGQAAGNAFHWRYSMNVEASGSRWLLHFDDWMFLQDGSHLFNKTEMKKFGITVATVTLFFTRTTAEERTAP,not soluble
3,MAYRDRGMQKWQGMILSEHTEQLEQAKRKLSWLPQQSEECLVEILSYAVTKQHAITIQRLTEDENGYPLPFVVGRIVGVEDDRIYMRDMAGEITVLTFDDINHISEGTIEKWYR,not soluble
4,MTEFFSQKQIDEIRECFNFYSTSGVLRTDSQLRCALRSLGYSPTASKTDIYFKKLNKKPIEFATFLDICKDEQNSPNPLTEIIKALSGLDRNKTRAMPSRELAAILSHVGEQMSPEEIKYLLSKVEVNGMVPHQALIEYISK,not soluble
5,MKRLSPEVFKVPIDRIRNGYYSDIYFINYVKVLKRDSRHPRVYYQFFPRKDAVICGIDEALAILKFCTGYYKDEEKARELFEEILKLDKEMQAASVEMDVQKILELTQKKWDLRLKLNDLWVDKWDEIEVHALYDGEEAKEGEPIMTIEGDPTYFGYLETVLLGVIARATSTATAVKKVVKAARGKPVLFFSARFDHYWVQATDGYAALKAGAFGVSTDANADYWGVKSMGTMPHALIACYDGKTEDAAIAFDRHMEEDVNRIVLVDWDNDVIGTTFRVIEKFYEYVMKKPFKLGVTDPSPIIGPGKNKIWGVRFDTSGNLRDKSVVPKDESSFGVCPELVWRARQEFDKVGLRDLKIVVSGGFDEKKIDLFERLGVPADAYGVGSRLLREKVDITADIVEVNGRHCAKVGRYKIENPRLKKVGKRYWEEE,soluble
6,VHADLAATTSREDFRLLAAEHRVVPVTRKVLADSETPLSAYRKLAANRPGTFLLESAENGRSWSRWSFIGAGAPTALTVREGQAVWLGAVPKDAPTGGDPLRALQVTLELLATADRQSEPGLPPLSGGMVGFFAYDMVRRLERLPERAVDDLCLPDMLLLLATDVAAVDHHEGTITLIANAVNWNGTDERVDWAYDDAVARLDVMTAALGQPLPSTVATFSRPEPRHRAQRTVEEYGAIVEYLVDQIAAGEAFQVVPSQRFEMDTDVDPIDVYRILRVTNPSPYMYLLQVPNSDGAVDFSIVGSSPEALVTVHEGWATTHPIAGTRWRGRTDDEDVLLEKELLADDKERAEHLMLVDLGRNDLGRVCTPGTVRVEDYSHIERYSHVMHLVSTVTGKLGEGRTALDAVTACFPAGTLSGAPKVRAMELIEEVEKTRRGLYGGVVGYLDFAGNADFAIAIRTALMRNGTAYVQAGGGVVADSNGSYEYNEARNKARAVLNAIAAAETLAAPGANRSGC,soluble
7,MGDAPSPEEKLHLITRNLQEVLGEEKLKEILKERELKIYWGTATTGKPHVAYFVPMSKIADFLKAGCEVTILFADLHAYLDNMKAPWELLELRVSYYENVIKAMLESIGVPLEKLKFIKGTDYQLSKEYTLDVYRLSSVVTQHDSKKAGAEVVKQVEHPLLSGLLYPGLQALDEEYLKVDAQFGGIDQRKIFTFAEKYLPALGYSKRVHLMNPMVPGLTGSKMSSSEEESKIDLLDRKEDVKKKLKKAFCEPGNVENNGVLSFIKHVLFPLKSEFVILRDEKWGGNKTYTAYVDLEKDFAAEVVHPGDLKNSVEVALNKLLDPIREKFNTPALKKLASAAYPDPSKQKPMAKGPAKNSEPEEVILEHHHHHH,soluble
8,MENISDLWNSALKELEKKVSKPSYETWLKSTTAHNLKKDVLTITAPNEFARDWLESHYSELISETLYDLTGAKLAIRFIIPQSQAEEDIDLPPVKPNPAQDDSAHLPQSMLNPKYTFDTFVIGSGNRFAHAASLAVAEAPAKAYNPLFIYGGVGLGKTHLMHAIGHYVIEHNPNAKVVYLSSEKFTNEFINSIRDNKAVDFRNKYRNVDVLLIDDIQFLAGKEQTQEEFFHTFNALHEESKQIVISSDRPPKEIPTLEDRLRSRFEWGLITDITPPDLETRIAILRKKAKAEGLDIPNEVMLYIANQIDSNIRELEGALIRVVAYSSLINKDINADLAAEALKDIIPNSKPKIISIYDIQKAVGDVYQVKLEDFKAKKRTKSVAFPRQIAMYLSRELTDSSLPKIGEEFGGRDHTTVIHAHEKISKLLKTDTQLQKQVEEINGILKLEHHHHHH,not soluble
9,MRNIAVILAGGSGQRLGENIPKQFLKIAGKKVIEHTITVFQNHSLIDEIVVVVHPDYIRDVEDISLRNSFNKLKKILLGGKERYHSSLAAINAYDEEVNLLFHDSVRPLVNERIINDCIRALLTYNAVDVAIPTTDTIIQVDDNNEIVKIPSRILLRNGQTPQAFKRSVIKAAYEKALLDPLFKTTDDCGVVLKYLPDESIYVVNGEQFNMKLTYKEDIFLLDKLFQLRSIRNQPTLLEKSEMEELQGKVVVVFGGTYGIGQDICEICREYKTSLYVYSRSTGVDVSNSQSVRRVLSEIFDKEGRIDWIVNTAGILDKQPLANMSYEAVHQSIDVNYLGNIIVAKESFFYLKESKGSLLFFTSSSYTRGRALYSLYSSSKAAIVNFVQALSEEWFEYGIRVNCINPERTKTPMRIQNFGNEPEDTLLEPKVVAIVSVNTLLSEMTGEVVDVKRLEHHHHHH,not soluble
10,SLIENVDAQADSSWPHRGQIEVRNLTVKYTEAGHAVLKNLSFSAEGRQRVGILGRTGSGKSSLFNALLKLVYTDGEISIDGVNWNKMPLEKWRKAFGVVPQKVFIFTGPLRMNLDPYGCHSDEELWRVAEEVGLKTVIEQFPDKLDFQLEYGGYVLSNGHKQLICLARSILSGARILLLDEPSAHLDPVTIKVLKKTLRQSFSTCTILLSEAKVEPLLECDSFLMMDKGQVKTYDSIQKLLNETSDLKQAISPAE,soluble
11,MGSDKIHHHHHHMSTRMVTLHGRIVLRASIELLTGLHIGGAAGGLEIGGLDKPVIRNPITNQPYIPGSSLKGKLRSLMEKVYGAPQTFRINEGVFIHVPTNPEEYQRYYQIAGVFGTLPNHKQLTIDVPTRLIVRDVPLTRESEQELRRLRTDLPYTEIKWEAAIDRVTSAAAPRQIERVPAGAVFGPAEVVYSLYVGNGEQLSDVIRLFGSVYEAFTYLEDDYLGGMGSRGNGQVRLRDITVLARRLESGRYGELTTIREAKELRELDRNGLLEELQRFFNPA,not soluble
12,MASNYNSGLKIGAWVGTQPSESAIKSFQELQGRKLDIVHQFINWSTDFSWVRPYADAVYNNGSILMITWEPWEYNTVDIKNGKADAYITRMAQDMKAYGKEIWLRPLHEANGDWYPWAIGYSSRVNTNETYIAAFRHIVDIFRANGATNVKWVFNVNCDNVGNGTSYLGHYPGDNYVDYTSIDGYNWGTTQSWGSQWQSFDQVFSRAYQALASINKPIIIAEFASAEIGGNKARWITEAYNSIRTSYNKVIAAVWFHENKETDWRINSSPEALAAYREAIGALEHHHHHH,soluble
13,MAHHHHHHMCKDKNEKKNYEHVNANEKNGYLASEKNELTKNKVEEHTYDYDYVVIGGGPGGMASAKEAAAHGARVLLFDYVKPSSQGTKWGIGGTCVNVGCVPKKLMHYAGHMGSIFKLDSKAYGWKFDNLKHDWKKLVTTVQSHIRSLNFSYMTGLRSSKVKYINGLAKLKDKNTVSYYLKGDLSKEETVTGKYILIATGCRPHIPDDVEGAKELSITSDDIFSLKKDPGKTLVVGASYVALECSGFLNSLGYDVTVAVRSIVLRGFDQQCAVKVKLYMEEQGVMFKNGILPKKLTKMDDKILVEFSDKTSELYDTVLYAIGRKGDIDGLNLESLNMNVNKSNNKIIADHLSCTNIPSIFAVGDVAENVPELAPVAIKAGEILARRLFKDSDEIMDYSYIPTSIYTPIEYGACGYSEEKAYELYGKSNVEVFLQEFNNLEISAVHRQKHIRAQKDEYDLDVSSTCLAKLVCLKNEDNRVIGFHYVGPNAGEVTQGMALALRLKVKKKDFDNCIGIHPTDAESFMNLFVTISSGLSYAAKGGCGGGKCG,soluble
14,MGNYKFRISEMLPNAWFHKLKDVTKHSKPKNKASSSSSNTCSKKKPSSDSLPQHSYFSNSLVANNPPHHNSPRNSLHTKKMSKRKTLYKPSLKPLTPPPLLVSASFNKSKINDQDSSYSLFPAIETSPESFVYSFYEEDDDDEFVEFSNFKINTKNKAFTKQKVKVIDSVEKACTASKPIKKPQKSHLSVKISRDEDDNEYKAEKKYQRQVSSGRKPSAGINLKRVNSPRIQLSGTRRSTSRRSESKQDVLESFAVMKRSVDPKKDFRESMIEMIEENNIRASKDLEDLLACYLTLNPKEYHDLIIHVFEQIWLQLTKTK,soluble
